Paper PMC4635569, “Complement Evasion Mediated by Enhancement of Captured Factor H: Implications for Protection of Self-Surfaces from Complement” (The Journal of Immunology Author Choice, 2015)

Target: T1, human C3b (human, UniProt P01024 23-667; P01024 749-1663)
T1 construct: Amine coupled to the SPR chips (C1 or CM5); source: bought: Complement Technologies, plasma-derived, used without further purification
Assay: SPR; C3b (~250 RU) or C3d (~70 RU) amine coupled to adjacent flow cells of a Biacore C1 chip; FH preincubated with or without a 2-fold molar excess of PspCN injected (90 s, 30 μl/min, 400 s dissociation); 1:1 binding model
Details: both partners purified

T1 sequence (P01024 23-667, chain 1 of 2): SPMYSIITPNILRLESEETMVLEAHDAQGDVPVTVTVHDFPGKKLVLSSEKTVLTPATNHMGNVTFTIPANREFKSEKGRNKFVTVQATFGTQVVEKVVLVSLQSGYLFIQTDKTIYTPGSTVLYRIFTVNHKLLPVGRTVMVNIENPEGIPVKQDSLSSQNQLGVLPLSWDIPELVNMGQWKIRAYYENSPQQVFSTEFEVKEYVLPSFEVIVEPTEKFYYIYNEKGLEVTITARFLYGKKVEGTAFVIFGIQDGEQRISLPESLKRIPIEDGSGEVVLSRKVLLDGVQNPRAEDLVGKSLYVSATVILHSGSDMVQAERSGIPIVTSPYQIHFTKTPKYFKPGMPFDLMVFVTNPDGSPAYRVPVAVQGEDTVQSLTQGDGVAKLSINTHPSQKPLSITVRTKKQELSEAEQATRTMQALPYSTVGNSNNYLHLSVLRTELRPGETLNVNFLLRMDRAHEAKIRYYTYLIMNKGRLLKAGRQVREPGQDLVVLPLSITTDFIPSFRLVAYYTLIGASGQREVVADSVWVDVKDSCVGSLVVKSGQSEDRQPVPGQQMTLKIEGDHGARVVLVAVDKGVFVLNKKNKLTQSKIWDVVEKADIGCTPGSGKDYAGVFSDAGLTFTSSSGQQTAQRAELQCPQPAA
T1 sequence (P01024 749-1663, chain 2 of 2): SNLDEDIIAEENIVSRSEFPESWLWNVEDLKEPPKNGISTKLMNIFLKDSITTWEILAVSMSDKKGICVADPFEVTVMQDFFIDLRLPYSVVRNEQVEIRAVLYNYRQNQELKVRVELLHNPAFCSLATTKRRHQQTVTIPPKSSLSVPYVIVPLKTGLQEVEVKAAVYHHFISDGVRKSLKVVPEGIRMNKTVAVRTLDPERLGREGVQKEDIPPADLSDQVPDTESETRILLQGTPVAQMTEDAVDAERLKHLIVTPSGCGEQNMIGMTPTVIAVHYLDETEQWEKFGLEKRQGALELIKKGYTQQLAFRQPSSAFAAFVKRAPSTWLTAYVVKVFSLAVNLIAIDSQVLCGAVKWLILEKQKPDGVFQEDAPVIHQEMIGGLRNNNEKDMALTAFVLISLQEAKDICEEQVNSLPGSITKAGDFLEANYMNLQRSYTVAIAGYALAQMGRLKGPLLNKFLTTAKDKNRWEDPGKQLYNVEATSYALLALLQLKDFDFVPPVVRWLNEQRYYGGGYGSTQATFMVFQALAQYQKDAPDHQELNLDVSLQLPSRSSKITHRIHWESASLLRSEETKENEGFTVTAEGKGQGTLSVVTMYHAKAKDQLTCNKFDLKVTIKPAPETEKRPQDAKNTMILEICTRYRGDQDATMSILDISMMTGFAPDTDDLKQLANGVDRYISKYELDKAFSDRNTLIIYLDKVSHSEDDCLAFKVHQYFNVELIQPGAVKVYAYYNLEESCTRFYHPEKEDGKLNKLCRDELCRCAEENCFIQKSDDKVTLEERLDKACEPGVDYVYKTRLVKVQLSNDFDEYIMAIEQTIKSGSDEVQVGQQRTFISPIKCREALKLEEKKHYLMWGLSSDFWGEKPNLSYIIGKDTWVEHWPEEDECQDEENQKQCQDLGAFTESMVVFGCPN

B1: plasma-derived human complement factor H (natural protein)
chain: EDCNELPPRRNTEILTGSWSDQTYPEGTQAIYKCRPGYRSLGNVIMVCRKGEWVALNPLRKCQKRPCGHPGDTPFGTFTLTGGNVFEYGVKAVYTCNEGYQLLGEINYRECDTDGWTNDIPICEVVKCLPVTAPENGKIVSSAMEPDREYHFGQAVRFVCNSGYKIEGDEEMHCSDDGFWSKEKPKCVEISCKSPDVINGSPISQKIIYKENERFQYKCNMGYEYSERGDAVCTESGWRPLPSCEEKSCDNPYIPNGDYSPLRIKHRTGDEITYQCRNGFYPATRGNTAKCTSTGWIPAPRCTLKPCDYPDIKHGGLYHENMRRPYFPVAVGKYYSYYCDEHFETPSGSYWDHIHCTQDGWSPAVPCLRKCYFPYLENGYNQNYGRKFVQGKSIDVACHPGYALPKAQTTVTCMENGWSPTPRCIRVKTCSKSSIDIENGFISESQYTYALKEKAKYQCKLGYVTADGETSGSITCGKDGWSAQPTCIKSCDIPVFMNARTKNDFTWFKLNDTLDYECHDGYESNTGSTTGSIVCGYNGWSDLPICYERECELPKIDVHLVPDRKKDQYKVGEVLKFSCKPGFTIVGPNSVQCYHFGLSPDLPICKEQVQSCGPPPELLNGNVKEKTKEEYGHSEVVEYYCNPRFLMKGPNKIQCVDGEWTTLPVCIVEESTCGDIPELEHGWAQLSSPPYYYGDSVEFNCSESFTMIGHRSITCIHGVWTQLPQCVAIDKLKKCKSSNLIILEEHLKNKKEFDHNSNIRYRCRGKEGWIHTVCINGRWDPEVNCSMAQIQLCPPPPQIPNSHNMTTTLNYRDGEKVSVLCQENYLIQEGEEITCKDGRWQSIPLCVEKIPCSQPPQIEHGTINSSRSSQESYAHGTKLSYTCEGGFRISEENETTCYMGKWSSPPQCEGLPCKSPPEISHGVVAHMSDSYQYGEEVTYKCFEGFGIDGPAIAKCLGEKWSHPPSCIKTDCLSLPSFENAIPMGEKKDVYKAGEQVTYTCATYYKMDGASNVTCINSRWTGRPTCRDTSCVNPPTVQNAYIVSRQMSKYPSGERVRYQCRSPYEMFGDEEVMCLNGNWTEPPQCKDSTGKCGPPPPIDNGDITSFPLSVYAPASSVEYQCQNLYQLEGNKRITCRNGQWSEPPKCLHPCVISREIMENYNIALRWTAKQKLYSRTGESVEFVCKRGYRLSSRSHTLRTTCWDGKLEYPTCAKR
notes: complement factor H (FH), human, 20 CCP modules, plasma-derived; Glycosylated plasma protein; monomer of 155 kDa by SEC-MALS; also called FH; plasma-purified human FH; source: bought: Complement Technologies, plasma-derived, used without further purification
- Kd: 490 nM

B2: recombinant human FH with a wild-type sequence (natural protein)
chain: EDCNELPPRRNTEILTGSWSDQTYPEGTQAIYKCRPGYRSLGNVIMVCRKGEWVALNPLRKCQKRPCGHPGDTPFGTFTLTGGNVFEYGVKAVYTCNEGYQLLGEINYRECDTDGWTNDIPICEVVKCLPVTAPENGKIVSSAMEPDREYHFGQAVRFVCNSGYKIEGDEEMHCSDDGFWSKEKPKCVEISCKSPDVINGSPISQKIIYKENERFQYKCNMGYEYSERGDAVCTESGWRPLPSCEEKSCDNPYIPNGDYSPLRIKHRTGDEITYQCRNGFYPATRGNTAKCTSTGWIPAPRCTLKPCDYPDIKHGGLYHENMRRPYFPVAVGKYYSYYCDEHFETPSGSYWDHIHCTQDGWSPAVPCLRKCYFPYLENGYNQNYGRKFVQGKSIDVACHPGYALPKAQTTVTCMENGWSPTPRCIRVKTCSKSSIDIENGFISESQYTYALKEKAKYQCKLGYVTADGETSGSITCGKDGWSAQPTCIKSCDIPVFMNARTKNDFTWFKLNDTLDYECHDGYESNTGSTTGSIVCGYNGWSDLPICYERECELPKIDVHLVPDRKKDQYKVGEVLKFSCKPGFTIVGPNSVQCYHFGLSPDLPICKEQVQSCGPPPELLNGNVKEKTKEEYGHSEVVEYYCNPRFLMKGPNKIQCVDGEWTTLPVCIVEESTCGDIPELEHGWAQLSSPPYYYGDSVEFNCSESFTMIGHRSITCIHGVWTQLPQCVAIDKLKKCKSSNLIILEEHLKNKKEFDHNSNIRYRCRGKEGWIHTVCINGRWDPEVNCSMAQIQLCPPPPQIPNSHNMTTTLNYRDGEKVSVLCQENYLIQEGEEITCKDGRWQSIPLCVEKIPCSQPPQIEHGTINSSRSSQESYAHGTKLSYTCEGGFRISEENETTCYMGKWSSPPQCEGLPCKSPPEISHGVVAHMSDSYQYGEEVTYKCFEGFGIDGPAIAKCLGEKWSHPPSCIKTDCLSLPSFENAIPMGEKKDVYKAGEQVTYTCATYYKMDGASNVTCINSRWTGRPTCRDTSCVNPPTVQNAYIVSRQMSKYPSGERVRYQCRSPYEMFGDEEVMCLNGNWTEPPQCKDSTGKCGPPPPIDNGDITSFPLSVYAPASSVEYQCQNLYQLEGNKRITCRNGQWSEPPKCLHPCVISREIMENYNIALRWTAKQKLYSRTGESVEFVCKRGYRLSSRSHTLRTTCWDGKLEYPTCAKR
notes: Secreted from P. pastoris, so the native signal peptide is probably absent (surmise); also called rFH; recombinant wild-type FH; source: Pichia pastoris (fermentor), purified after enzymatic deglycosylation
- Kd: 600 nM

B3: recombinant FH(D1119G) (natural protein)
chain: EDCNELPPRRNTEILTGSWSDQTYPEGTQAIYKCRPGYRSLGNVIMVCRKGEWVALNPLRKCQKRPCGHPGDTPFGTFTLTGGNVFEYGVKAVYTCNEGYQLLGEINYRECDTDGWTNDIPICEVVKCLPVTAPENGKIVSSAMEPDREYHFGQAVRFVCNSGYKIEGDEEMHCSDDGFWSKEKPKCVEISCKSPDVINGSPISQKIIYKENERFQYKCNMGYEYSERGDAVCTESGWRPLPSCEEKSCDNPYIPNGDYSPLRIKHRTGDEITYQCRNGFYPATRGNTAKCTSTGWIPAPRCTLKPCDYPDIKHGGLYHENMRRPYFPVAVGKYYSYYCDEHFETPSGSYWDHIHCTQDGWSPAVPCLRKCYFPYLENGYNQNYGRKFVQGKSIDVACHPGYALPKAQTTVTCMENGWSPTPRCIRVKTCSKSSIDIENGFISESQYTYALKEKAKYQCKLGYVTADGETSGSITCGKDGWSAQPTCIKSCDIPVFMNARTKNDFTWFKLNDTLDYECHDGYESNTGSTTGSIVCGYNGWSDLPICYERECELPKIDVHLVPDRKKDQYKVGEVLKFSCKPGFTIVGPNSVQCYHFGLSPDLPICKEQVQSCGPPPELLNGNVKEKTKEEYGHSEVVEYYCNPRFLMKGPNKIQCVDGEWTTLPVCIVEESTCGDIPELEHGWAQLSSPPYYYGDSVEFNCSESFTMIGHRSITCIHGVWTQLPQCVAIDKLKKCKSSNLIILEEHLKNKKEFDHNSNIRYRCRGKEGWIHTVCINGRWDPEVNCSMAQIQLCPPPPQIPNSHNMTTTLNYRDGEKVSVLCQENYLIQEGEEITCKDGRWQSIPLCVEKIPCSQPPQIEHGTINSSRSSQESYAHGTKLSYTCEGGFRISEENETTCYMGKWSSPPQCEGLPCKSPPEISHGVVAHMSDSYQYGEEVTYKCFEGFGIDGPAIAKCLGEKWSHPPSCIKTDCLSLPSFENAIPMGEKKDVYKAGEQVTYTCATYYKMDGASNVTCINSRWTGRPTCRDTSCVNPPTVQNAYIVSRQMSKYPSGERVRYQCRSPYEMFGDEEVMCLNGNWTEPPQCKDSTGKCGPPPPIDNGGITSFPLSVYAPASSVEYQCQNLYQLEGNKRITCRNGQWSEPPKCLHPCVISREIMENYNIALRWTAKQKLYSRTGESVEFVCKRGYRLSSRSHTLRTTCWDGKLEYPTCAKR
notes: complement factor H, human, full-length, with the aHUS-linked substitution D1119G (CCP 19); Expression-optimized synthetic DNA; Secreted from P. pastoris, so the native signal peptide is probably absent (surmise); also called rFH(D1119G); rFH; source: Pichia pastoris (vector pPICZαB), purified as described for rFH
- Kd: 540 nM
